Key:
[1] = target: T1, human G protein-coupled receptor class C group 5 member D (GPRC5D) (human, UniProt Q9NZD1 1-345); experiment: ELISA-based epitope mapping on overlapping 15-mer peptides of the GPRC5D extracellular domains linked to scaffolds (linear, conformational, discontinuous)
T1 construct: also called hGPRC5D

EGFR = target: T2, EGFR (human, UniProt P00533); experiment: cell microarray of HEK293 cells expressing the indicated surface protein, probed with scFv-mIgG2a Fc
T2 construct: expressed on the surface of HEK293 cells in a cell microarray spot
Method: (§1) Cell microarrays were assessed for binding by automated fluorescent microscopy with a fluorescently labeled anti-mIgG2a secondary antibody.

CD86 = target: T3, CD86 (human, UniProt P42081); experiment: as above
T3 construct: expressed on the surface of HEK293 cells in a cell microarray spot; target of the positive control
T3 sequence (single chain, looked up): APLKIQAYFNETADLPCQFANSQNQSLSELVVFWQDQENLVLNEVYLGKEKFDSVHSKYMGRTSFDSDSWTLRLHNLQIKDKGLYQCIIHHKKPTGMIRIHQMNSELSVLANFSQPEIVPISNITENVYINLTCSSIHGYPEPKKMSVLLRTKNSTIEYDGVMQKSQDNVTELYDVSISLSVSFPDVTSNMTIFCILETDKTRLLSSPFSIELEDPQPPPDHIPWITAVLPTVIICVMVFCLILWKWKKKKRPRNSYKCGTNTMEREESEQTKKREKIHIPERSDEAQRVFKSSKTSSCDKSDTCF
Method: as §1

SLC38A2 = target: T4, SLC38A2 (human, UniProt Q96QD8); experiment: as above
T4 construct: expressed on the surface of HEK293 cells in a cell microarray spot
T4 sequence (single chain, looked up): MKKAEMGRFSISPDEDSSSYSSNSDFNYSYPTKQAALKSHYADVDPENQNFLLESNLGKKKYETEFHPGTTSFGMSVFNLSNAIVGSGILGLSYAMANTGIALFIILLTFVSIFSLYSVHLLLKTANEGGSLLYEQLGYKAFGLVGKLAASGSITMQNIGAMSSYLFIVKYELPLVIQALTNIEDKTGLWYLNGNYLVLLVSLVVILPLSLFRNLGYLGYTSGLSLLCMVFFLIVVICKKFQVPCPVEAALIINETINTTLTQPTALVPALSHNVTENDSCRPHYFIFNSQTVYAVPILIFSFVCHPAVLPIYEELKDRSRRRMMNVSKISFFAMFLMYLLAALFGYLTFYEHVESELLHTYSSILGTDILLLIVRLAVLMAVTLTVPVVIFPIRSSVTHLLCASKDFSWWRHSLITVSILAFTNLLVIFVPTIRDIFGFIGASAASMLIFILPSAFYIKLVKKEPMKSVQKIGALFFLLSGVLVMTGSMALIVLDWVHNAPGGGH
Method: as §1

[2] = target: T1, human G protein-coupled receptor class …; experiment: scFv phage clones from panning on hGPRC5D-aAPCs, binding to MM cell lines MM.1S and NCI-H929 (endogenous GPRC5D)
[3] = target: T1, human G protein-coupled receptor class …; experiment: cell-cell interaction by automated flow cytometry: HEK293 cells with the non-signaling GPRC5D-203 long spacer CAR (mCherry) against HEK293 cells each expressing one human GPCR (GFP); Z-score
Method: In parallel, the cDNA of individual receptors from a library of human GPCRs, in a vector expressing cytoplasmic GFP, was transiently expressed in the HEK293 cells. […] Binding was determined using an automated flow cytometric assay that detects cell-cell interaction.

[4] = target: cynomolgus GPRC5D (cynomolgus); experiment: cell-based or functional assay

T1 sequence (Q9NZD1 whole entry, the tested form may be a part): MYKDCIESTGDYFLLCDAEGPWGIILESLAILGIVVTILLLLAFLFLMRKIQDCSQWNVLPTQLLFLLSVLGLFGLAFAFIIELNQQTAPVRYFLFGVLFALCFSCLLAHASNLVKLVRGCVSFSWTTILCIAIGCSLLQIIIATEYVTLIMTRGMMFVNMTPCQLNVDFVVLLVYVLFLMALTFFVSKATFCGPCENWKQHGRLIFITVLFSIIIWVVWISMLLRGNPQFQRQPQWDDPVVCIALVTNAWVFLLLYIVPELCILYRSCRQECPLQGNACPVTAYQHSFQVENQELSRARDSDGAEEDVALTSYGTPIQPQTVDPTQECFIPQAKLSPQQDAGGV

Binder	binding result [1]	binding result [2]	also measured
GPRC5D-205 scFv clone (scFv, V domains shown, Human scFv from a phage display library) VH: EVQLVESGGGLIQPGGSLRLSCAASGFTFSNYAMNWVRQAPGKGLEWVSTINGRGSSTIYADSVKGRFTISRDNSKNTLYLQMNSLRAEDTATYYCARYISRGLGDSWGQGTLVTV VL: QSVVTQPPSMSAAPGQQVTISCSGGNSNIERNYVSWYLQLPGTAPKLVIFDNDRRPSGIPDRFSGSKSGTSATLGITGLQTGDEADYYCGTWDSSLRGWVFGGGTKLTVLG	binds	–	–
GPRC5D-203 scFv clone (scFv, V domains shown, Human scFv from a phage display library) VH: QVQLVESGGGLVHPGGSLRLSCAASGFTFRSHSMNWVRQAPGKGLEWVSSISSDSTYTYYADSVKGRFTISRDNAKNSLYLQMNSLRAEDTAVYYCARSGGQWKYYDYWGQGTLVTVSS VL: SSELTQDPAVSVALGQTVRITCQGDSLRSYYASWYQQKPGQAPVLVIYGKNNRPSGIPDRFSGSSSGNTASLTITGAQAEDEADYYCNSRDSSGNPPVVFGGGTKLTVLG	binds	–	–
GPRC5D-202 scFv clone (scFv, V domains shown, Human scFv from a phage display library) VH: EVQLVESGGGLVKPGGSLRLSCAASGFTFSDYYMSWIRQAPGKGLEWVSYISSSGSTIYYADSVKGRFTISRDNAKNSLYLQMNSLRAEDTAVYYCARGYGKAYDQWGQGTLVTVSS VL: QSVLTQPPSASGTPGQRVTISCSGSRSNVGGNYVFWYQQVPGATPKLLIYRSNQRPSGVPDRFAGSKSGSSASLAISGLRSEDEADYYCATWDDSLSGFVFGTGTKVTVLG	binds	–	–
anti-GPRC5D-203 VL/VH scFv (SEQ ID NO: 8) fused to an mIgG2a Fc (Fc fusion, not shown: a dimerising Fc or GST; small tags and cut ends, also called scFv-Fc) scFv: SSELTQDPAVSVALGQTVRITCQGDSLRSYYASWYQQKPGQAPVLVIYGKNNRPSGIPDRFSGSSSGNTASLTITGAQAEDEADYYCNSRDSSGNPPVVFGGGTKLTVLGSRGGGGSGGGGSGGGGSLEMAQVQLVESGGGLVHPGGSLRLSCAASGFTFRSHSMNWVRQAPGKGLEWVSSISSDSTYTYYADSVKGRFTISRDNAKNSLYLQMNSLRAEDTAVYYCARSGGQWKYYDYWGQGTLVTVSS	–	–	binding result (EGFR): no binding; binding result (CD86): no binding; binding result (SLC38A2): no binding
GPRC5D-201 scFv clone (scFv, V domains shown, Human scFv from a phage display library) VH: QMQLVQSGAEVKKPGASVKVSCKASGYTFNRYAITWVRQAPGQGLEWMGWISAYNGNSHYAQKLQGRVTMTTDTSTGTAYMELRRLRSDDTAVYYCARMAYDSWGQGTLVTVSS VL: QSVLTQPASVSGSPGQSLTISCTGTSNDVGAYKYVSWYQQYPGKAPKLILYDVFKRPSGVSNRFSGSKSDNTASLTISGLQAEDEADYYCFSLTSSNTYVFGTGTKVTVLG	binds	–	–
GPRC5D-200 scFv clone (scFv, V domains shown, Human scFv from a B cell-derived phage display library) VH: EVQLVESGGAFVQPGGSLRLSCAASGFTFSSYAMTWVRQAPGKGLEWVSTISGRGRSTFYADSVKGRFTISRDNSKNTLYLQMNSLRAEDTAVYYCARYYHAGAFDLWGQGTLVTVSS VL: QSVVTQPASVSGSPGQSITISCTGTSSDVGGYNYVSWYQQHPGKAPKLMIYDVSKRPSGVSNRFSGSKSGNTASLTISGLQAEDEADYYCSSYTSSSTLVFGGGTKLTVLG	–	binds	–
GPRC5D-203 VL/VH, long spacer CAR but lacking the signaling domains (other, Transiently expressed on HEK293 cells from a cell surface expression vector with cytoplasmic mCherry; also called non-signaling CAR) SSELTQDPAVSVALGQTVRITCQGDSLRSYYASWYQQKPGQAPVLVIYGKNNRPSGIPDRFSGSSSGNTASLTITGAQAEDEADYYCNSRDSSGNPPVVFGGGTKLTVLGSRGGGGSGGGGSGGGGSLEMAQVQLVESGGGLVHPGGSLRLSCAASGFTFRSHSMNWVRQAPGKGLEWVSSISSDSTYTYYADSVKGRFTISRDNAKNSLYLQMNSLRAEDTAVYYCARSGGQWKYYDYWGQGTLVTVSSESKYGPPCPPCPAPPVAGPSVFLFPPKPKDTLMISRTPEVTCVVVDVSQEDPEVQFNWYVDGVEVHNAKTKPREEQFQSTYRVVSVLTVLHQDWLNGKEYKCKVSNKGLPSSIEKTISKAKGQPREPQVYTLPPSQEEMTKNQVSLTCLVKGFYPSDIAVEWESNGQPENNYKTTPPVLDSDGSFFLYSRLTVDKSRWQEGNVFSCSVMHEALHNHYTQKSLSLSLGKMFWVLVVVGGVLACYSLLVTVAFIIFWV	–	–	binding result [3]: binds
GPRC5D-202 VH/VL - long (anti-GPRC5D CAR) (protein) EVQLVESGGGLVKPGGSLRLSCAASGFTFSDYYMSWIRQAPGKGLEWVSYISSSGSTIYYADSVKGRFTISRDNAKNSLYLQMNSLRAEDTAVYYCARGYGKAYDQWGQGTLVTVSSGSRGGGGSGGGGSGGGGSLEMAQSVLTQPPSASGTPGQRVTISCSGSRSNVGGNYVFWYQQVPGATPKLLIYRSNQRPSGVPDRFAGSKSGSSASLAISGLRSEDEADYYCATWDDSLSGFVFGTGTKVTVLESKYGPPCPPCPAPPVAGPSVFLFPPKPKDTLMISRTPEVTCVVVDVSQEDPEVQFNWYVDGVEVHNAKTKPREEQFQSTYRVVSVLTVLHQDWLNGKEYKCKVSNKGLPSSIEKTISKAKGQPREPQVYTLPPSQEEMTKNQVSLTCLVKGFYPSDIAVEWESNGQPENNYKTTPPVLDSDGSFFLYSRLTVDKSRWQEGNVFSCSVMHEALHNHYTQKSLSLSLGKMFWVLVVVGGVLACYSLLVTVAFIIFWVKRGRKKLLYIFKQPFMRPVQTTQEEDGCSCRFPEEEEGGCELRVKFSRSADAPAYQQGQNQLYNELNLGRREEYDVLDKRRGRDPEMGGKPRRKNPQEGLYNELQKDKMAEAYSEIGMKGERRRGKGHDGLYQGLSTATKDTYDALHMQALPPR	–	–	interferon gamma release by CAR-transduced NHP T cells [4]: 10000 pg/mL
GPRC5D-206 scFv clone (scFv, V domains shown, Human scFv from a phage display library) VH: QVQLVQSGAEVKKPGASVKVSCKASGYTFTSYYMHWVRQAPGQGLEWMGIINPSGGSTRYAQKFQGRVTMTRDTSTSTVYMELSSLRSEDTAVYYCARGSSRWGGWTGDYWGQGTLVTVSS VL: QSALTQPASVSGSPGQSITISCTGTSSDVGGYNFVSWYQQHPGKAPKVMIYDVSKRPSGISNRFSGSKSGNTASLTISGLQVEDEAEYYCSSYTSTRTVIFAGGTKVTVLG	–	binds	–
GPRC5D-204 scFv clone (scFv, V domains shown, Human scFv from a phage display library) VH: EVQLVESGGGLVQPGGSLRLSCAASGFTFSNYAMSWVRQAPGKGLEWVSAISGSGNTYYADSVKGRFTISRDNSKNTLYLQMNSLRAEDTAVYYCARGSVRYTDIWGQGTLVTVSS VL: NFMLTQPHSVSESPGKTVSISCTRTSGAIAGAYVQWFQQRPGSAPTTVIYDDNKRPSGVPDRFSGSIDKSSNSASLTISGLKTEDEADYYCQSYDYDSSNVLFGGGTKLTVLG	–	binds	–
